Test results reported in patent US20110002937A1 (THOMAS JEFFERSON UNIVERSITY, published 2011).

Target: recombinant 50 kD C-terminal BoNT/A domain (HC50A) (Clostridium botulinum, UniProt P0DPI0 871-1296)
Sequence (P0DPI0 871-1296 limits assumed): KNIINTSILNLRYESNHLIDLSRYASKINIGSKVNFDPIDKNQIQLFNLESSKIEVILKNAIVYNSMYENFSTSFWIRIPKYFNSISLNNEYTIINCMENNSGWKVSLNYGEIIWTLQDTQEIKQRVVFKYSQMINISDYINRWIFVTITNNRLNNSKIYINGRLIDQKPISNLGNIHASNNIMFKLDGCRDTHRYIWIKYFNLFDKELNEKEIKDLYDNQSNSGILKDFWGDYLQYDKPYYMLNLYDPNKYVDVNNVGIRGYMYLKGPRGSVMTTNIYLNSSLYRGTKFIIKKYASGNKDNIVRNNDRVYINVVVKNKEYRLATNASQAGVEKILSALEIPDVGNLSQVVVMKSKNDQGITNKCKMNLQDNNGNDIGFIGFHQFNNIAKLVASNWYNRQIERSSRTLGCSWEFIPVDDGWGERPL

B1: 6A antibody (human monoclonal IgG secreted by hybridoma 6A, ATCC accession no. PTA-8870) (antibody, V domains shown)
VH: EVQLVESGGGVVKPGGSLRLSCTAFGFTFEDFGMHWVRQAPGKGLEWVSLVSGEGGSKYYADSVKGRFTISRDNKKHSLYLHMNSLKTEDTALYYCAKDVWTYHYDSSGYQYYYGMDVWGQGTTVTVSS
VL: QEPAVSVALGQTVRITCQGDSLRSYSASWYQQRPGQAPLFVMYGKDKRPSGIPDRFSGSASGNTASLTITGAQAEDEADYYCNCRDSSNQYWIFGGGTKVTVL
Q: For B1, which Kd is on record?
A: The Kd was 6.9 pM.

Q: And the kon?
A: Its kon is 440000 M⁻¹ s⁻¹.
